Test results taken from patent publication US20240115742A1, “FLUORINATED FIBERS FOR MULTIMODAL 1H AND 19F MRI, ULTRASOUND, FLUORESCENCE DETECTION AND CONFORMATIONAL AND TEMPERATURE DETECTION BY 19F MRS” (New York University, priority 2022, published 2024).
“And” between values parts separate entries of the source, which are not always exact repeats. Equal entries are not always repeated. Square brackets hold non-standard residues; d marks the D form. Ends that are not written are not given here. LTF = trifluoroleucine

How the values were obtained:
Parallel plate rheology = format: physicochemical; settings: 10 Hz, 5% strain
Method: Rheology. Mechanical integrity of the Q2 hydrogel was assessed using a stress-controlled rheometer (Discovery Hybrid Rheometer 2, TA Instruments) equipped with a parallel plate geometry. After complete gelation of a 2 mM sample at 4° C., the sample was loaded onto the 8 mm diameter lower and upper plates with a 0.2 mm geometry gap. Strain and frequency settings were informed from previous Q hydrogel studies where the storage modulus (G′) and loss modulus (G″) were measured over the frequency range 0.1-10 Hz with a 5% oscillation strain.
Rheology. Q hydrogel variants were assessed for relative mechanical integrity with a stress-controlled rheometer (Discovery Hybrid Rheometer 2, TA Instruments) equipped with a parallel plate geometry. In parallel with microrheology measurements, 100 μL of each variant was incubated at 4° C. Upon gelation as assessed by microrheology, hydrogels were loaded onto an 8 mm diameter lower and upper plate with a 0.2 mm geometry gap. Storage modulus (G′) and loss modulus (G″) were measured from 0.1-10 Hz with 5% oscillation strain.

[1] = TEM of hydrogel nanofibers; format: physicochemical; settings: gel after incubation at 4 °C
Method: Transmission Electron Microscopy. Transmission electron microscopy (TEM) images were taken with a FEI Talos L120C transmission electron microscope. The supramolecular assembly of Q2 and Q were monitored over the course of 60 and 144 hours, respectively (in correspondence with tube inversion and microrheology). TEM images were taken of the gel at times consistent with when microrheological measurements for Q2 for consistent fibril sizing. Samples were diluted to 50 μM and 3 μL was spotted on Formvar/carbon-coated copper grids followed by 5 μL wash with water, and 3 μL staining with 1% v/v uranyl acetate solution each with incubation times of 1 min. Following imaging, fibrils were sized in ImageJ software (Version 1.52q).
Transmission Electron Microscopy. Transmission electron microscopy (TEM) images were taken with a FEI Talos L120C transmission electron microscope. Samples were diluted to 50 μM and 3 μL was spotted on Formvar/carbon-coated copper grids followed by […] with water, and 3 μL staining with 1% v/v uranyl acetate solution each with incubation times of 1 min. Between steps, filter paper was used to gently wick the grids dry. Following imaging, minimum diameter nanofibers within the physically crosslinked hydrogel were sized in ImageJ software (Version 1.52q).

[2] = Fluorescence recovery after photobleaching (FRAP); settings: one-phase association fit
Method: Protein fibrils are capable of blue autofluorescence as a result of protein self-assembly. Fluorescent recovery after photobleaching (FRAP) is measured by photobleaching using a 405 nm laser and measuring the spot intensity over time. This behavior was previously confirmed in the Q protein in a recent characterization. Using the correlation between autofluorescence and fibrilization, the relative autofluorescence of the coiled-coil protein hydrogels was measured. […] To assess the relative laser response, hydrogels were subjected to FRAP imaging using two 100% intensity bleaches at 405 nm excitation followed by imaging at 2 second frame intervals (FIG. 53c).
Confocal Imaging and Fluorescence Recovery After Photobleaching (FRAP). FRAP experiments were performed with a Stellaris 8 Falcon laser scanning confocal microscope on an inverted DMi8 CS stand equipped with 63X NA 1.4 lens. Images were taken with a laser at 405 nm excitation. A pre-bleach image was taken followed by two bleach images using 100% laser intensity for 1.5 s. Following, 41 images were taken post-bleach at 2 s intervals. To measure recovery, FIJI (version 2.3.0) was used to automate background and recovery imaging following photobleaching. Independent background intensities were fit to a one-phase decay equation in GraphPad Prism. Background loss, as a result of photobleaching, from fit values were added to spot intensity values before being fit to a one-phase association equation in GraphPad Prism.

[3] = Confocal microscopy of CCM-bound fibers; format: physicochemical; settings: for fiber diameter after CCM binding (confocal): 50 μM protein saturated with CCM, pH 4.0
Method: Confocal Microscopy. Protein bound to CCM was studied by measuring 50 μM protein samples saturated with CCM as determined by fluorescent spectroscopic drug binding with a final 1% v/v DMSO (or 2×Kd). 10 μL of protein was added to a micro slide and a 22×22 mm #1 microscope cover glass. Slides were inverted and imaged using a Leica TCS SP8 X Laser Confocal Microscope using a dry 10× objective at RT. CCM was excited using a 460 nm line of the laser, and images were taken using a 470 to 550 nm detection window.
Confocal Microscopy. Q2LTF was diluted to 50 μM and saturated with 40 μM of curcumin (solubilized in DMSO) as determined by the binding affinity in drug-binding experiments. […] 5 μL of sample was deposited onto a microslide and covered with a 22×22 mm #1 microscope cover glass. Images were taken with a Leica TCS SP8 X laser confocal microscope using a dry 10× objective at RT. Samples were excited at 460 nm and images were taken with a 470-550 nm detection window.

[4] = CD temperature scans (melting temperature); format: physicochemical
Method: Circular Dichroism Spectroscopy. Secondary structure was first assessed using the Jasco J-815 CD spectrometer with a PTC-423S single position Peltier temperature control system. Wavelength scans were performed from 190 to 250 nm using 15 μM samples at 1 nm step sizes at 25° C. Temperature scans were performed at α-helical minimum 222 nm from 20 to 85° C. The mean residue ellipticity (MRE) was calculated as described previously. MRE at 222 nm and 208 nm and their ratios were used to assess relative helicity.
Circular Dichroism Spectroscopy. The secondary structure of Q2LTF and QLTF was assessed using a Jasco J-815 circular dischroism (CD) spectrometer with a PTC-423S single position Peltier temperature control system. Wavelength scans were performed from 195 to 250 nm at 1 nm step sizes by diluting the protein into water (at approximately 10 μM) in order to minimize the effects of sodium chloride. […] The mean residue ellipticity (MRE) was calculated as described.

Q5: Q hydrogel variant from Rosetta Monte Carlo search, SEQ ID NO: 14 (MRGSHHHHHHGSIEGRVKEITFIKKTIEQIAEEMKEINKAIHDIRHALENISKK) [Protein Q5]
loss modulus G″ (Parallel plate rheology): 12±6 Pa and 11.8 ± 6.1 Pa
storage modulus G′ (Parallel plate rheology): 229±52 Pa and 228.7 ± 52.2 Pa
hydrogel fibril diameter (TEM) [1]: 22.2±8.4 nm
Halftime [2]: 12.3 s
K [2]: 0.1 s⁻¹
Tau [2]: 17.7 s

Q2LTF: protein-engineered fluorinated coiled-coil fiber, Q2 with trifluoroleucine, SEQ ID NO: 20 (MRGSHHHHHHGSIEGRVKE[LTF][LTF]F[LTF]KKTAEQM[LTF]EE[LTF]KETNKA[LTF]HDVRH[LTF][LTF]ENQSK[LTF]; ends and bridges not checked) [Protein Q2LTF]
average fiber diameter after CCM binding (confocal) ([3]; 50 μM Q2LTF, 40 μM curcumin): 10.8±5.4 μm
melting temperature ([4]; in only water): 32.6±1.6 °C
melting temperature ([4]; phosphate buffer (50 mM Na2HPO4, pH 8.0)): 65.0±2.9 °C

Q: rationally designed pentameric coiled-coil derived from C, SEQ ID NO: 23 (MRGSHHHHHHGSIEGRVKEITFLKNTAPQMLRELQETNAALQDVRELLRQQSKL) [reference compound]
fiber diameter after CCM binding (confocal) [3]: 14.74±5.501 μm
melting temperature ([4]; CCM-bound, pH 4.0): 76.4±4.6 °C
melting temperature ([4]; native, 50 mM NaH2PO4 pH 4.0): 37.0±7.8 °C
hydrogel fibril diameter (TEM) [1]: 40.5±25.2 nm
Halftime [2]: 9.9 s
K [2]: 0.1 s⁻¹
Tau [2]: 14.3 s

Q2: coiled-coil protein redesigned from Q for reduced lateral assembly, SEQ ID NO: 11 (MRGSHHHHHHGSIEGRVKELLFLKKTAEQMLEELKETNKALHDVRHLLENQSKL) [Protein Q2]
fiber diameter after CCM binding (confocal) [3]: 7.17±2.19 μm
melting temperature ([4]; CCM-bound, pH 4.0): 59.9±6.3 °C
melting temperature ([4]; native, 50 mM NaH2PO4 pH 4.0): 43.4±4.0 °C
storage modulus G′ (Parallel plate rheology): 289.6±86.9 Pa
hydrogel fibril diameter (TEM) [1]: 28.9±8.6 nm
Halftime [2]: 11.1 s
K [2]: 0.1 s⁻¹
Tau [2]: 16.0 s

Q3: Q variant with V44I pore mutation, SEQ ID NO: 12 (MRGSHHHHHHGSIEGRVKEILFLKNTAYQMLLELKETNEALYDIRHLLQQQSKL) [Protein Q3]
fiber diameter after CCM binding (confocal) [3]: 8.04±1.78 μm
melting temperature ([4]; CCM-bound, pH 4.0): 61.9±2.0 °C
melting temperature ([4]; native, 50 mM NaH2PO4 pH 4.0): 61.0±4.9 °C
loss modulus G″ (Parallel plate rheology): 12±2 Pa and 12.3 ± 1.7 Pa
storage modulus G′ (Parallel plate rheology): 83±35 Pa and 82.5 ± 35.4 Pa
hydrogel fibril diameter (TEM) [1]: 32.8±9.8 nm
Halftime [2]: 34.8 s
K [2]: 0.0 s⁻¹
Tau [2]: 50.1 s
